Experimental data published in publication PMC8242512.

Biological target: soluble trimeric SARS-CoV-2 S glycoprotein, 2P-stabilized, lacking the furin cleavage site (SARS-CoV-2) (UniProt P0DTC2)
Assay: SPR; S protein captured on a Ni2+-loaded NTA chip; ACE2 as analyte, serial dilutions 200 nM to 3.125 nM in triplicate, 50 ul/min, HBS P+ buffer, association 300 s, dissociation 600 s; 1:1 binding model (Biacore Evaluation Software)

Chain of truncated soluble angiotensin-converting enzyme 2 (hACE2) (Q9BYF1 18-626): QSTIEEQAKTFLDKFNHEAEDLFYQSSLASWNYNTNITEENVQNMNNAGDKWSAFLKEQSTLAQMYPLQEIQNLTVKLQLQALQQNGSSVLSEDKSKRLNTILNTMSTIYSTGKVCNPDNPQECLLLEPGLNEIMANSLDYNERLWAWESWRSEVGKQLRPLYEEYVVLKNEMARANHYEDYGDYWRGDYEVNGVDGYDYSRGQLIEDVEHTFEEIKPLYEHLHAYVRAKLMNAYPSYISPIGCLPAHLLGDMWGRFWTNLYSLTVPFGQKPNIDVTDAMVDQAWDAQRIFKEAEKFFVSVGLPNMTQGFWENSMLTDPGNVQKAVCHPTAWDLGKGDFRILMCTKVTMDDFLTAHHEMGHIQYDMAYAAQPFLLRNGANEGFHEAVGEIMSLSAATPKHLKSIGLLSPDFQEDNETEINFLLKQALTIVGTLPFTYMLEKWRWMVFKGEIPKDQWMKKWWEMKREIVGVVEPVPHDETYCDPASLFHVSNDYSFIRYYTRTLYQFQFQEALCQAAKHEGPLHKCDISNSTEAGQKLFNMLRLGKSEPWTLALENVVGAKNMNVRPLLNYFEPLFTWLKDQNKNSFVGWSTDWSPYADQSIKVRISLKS

truncated soluble angiotensin-converting enzyme 2 (hACE2) (from UniProt Q9BYF1 18-626) (receptor)
Kd: 84 nM
